This passage reports log EC50 of GFP10–β-arrestin 2 recruitment to ACKR3-RlucII (BRET) as a function of CXCL12WT, with 2 μM CID25 and log EC50 of GFP10–β-arrestin 2 recruitment to ACKR3-RlucII (BRET) as a function of CXCL12WT, without CID25 results from article PMC9278869.

In this assay the target is Flag-ACKR3-RlucII (human) (UniProt P25106). The settings on record: scale: log EC50.
Flag-ACKR3-RlucII (human), sequence (P25106 whole entry): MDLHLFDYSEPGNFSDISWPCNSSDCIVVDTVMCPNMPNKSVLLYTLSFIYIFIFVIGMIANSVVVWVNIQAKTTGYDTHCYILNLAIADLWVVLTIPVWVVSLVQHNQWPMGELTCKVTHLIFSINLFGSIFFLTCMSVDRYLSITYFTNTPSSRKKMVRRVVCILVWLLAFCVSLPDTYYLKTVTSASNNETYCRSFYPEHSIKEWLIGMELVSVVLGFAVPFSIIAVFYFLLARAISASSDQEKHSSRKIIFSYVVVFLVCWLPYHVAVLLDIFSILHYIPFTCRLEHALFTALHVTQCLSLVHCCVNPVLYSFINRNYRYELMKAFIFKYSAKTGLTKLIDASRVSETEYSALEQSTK

As for “wild-type CXCL12 (CXCL12WT) (from UniProt P48061 22-93) (ligand)”, the log EC50 of GFP10–β-arrestin 2 recruitment to ACKR3-RlucII (BRET) as a function of CXCL12WT, with 2 μM CID25 is -8.89 and the log EC50 of GFP10–β-arrestin 2 recruitment to ACKR3-RlucII (BRET) as a function of CXCL12WT, without CID25 was -8.87.
